In ChEMBL document CHEMBL1143427, “Interactions of ceftobiprole with beta-lactamases from molecular classes A to D” (Antimicrob Agents Chemother, 2007):

Legend:
[1] = substrate: CC1(C)S[C@@H]2[C@H](NC(=O)Cc3ccccc3)C(=O)N2[C@H]1C(=O)O; assay: (§1) Ratio of Kcat to Km of Escherichia coli TEM1 assessed as drug hydrolysis by spectrophotometry
[2] = substrate: CC(C)(O/N=C(\C(=O)N[C@@H]1C(=O)N2C(C(=O)[O-])=C(C[n+]3ccccc3)CS[C@H]12)c1csc(N)n1)C(=O)O; assay: as §1
[3] = substrate: Nc1nc(/C(=N/O)C(=O)N[C@@H]2C(=O)N3C(C(=O)O)=C(/C=C4\CCN([C@@H]5CCNC5)C4=O)CS[C@H]23)ns1; assay: as §1
[4] = substrate: CC1(C)S[C@@H]2[C@H](NC(=O)Cc3ccccc3)C(=O)N2[C@H]1C(=O)O; assay: (§2) Activity of Escherichia coli TEM1 assessed as drug hydrolysis by spectrophotometry
[5] = substrate: CC(C)(O/N=C(\C(=O)N[C@@H]1C(=O)N2C(C(=O)[O-])=C(C[n+]3ccccc3)CS[C@H]12)c1csc(N)n1)C(=O)O; assay: as §2
[6] = substrate: O=C(Cc1cccs1)N[C@@H]1C(=O)N2C(C(=O)[O-])=C(C[n+]3ccccc3)CS[C@H]12; assay: as §2
[7] = substrate: Nc1nc(/C(=N/O)C(=O)N[C@@H]2C(=O)N3C(C(=O)O)=C(/C=C4\CCN([C@@H]5CCNC5)C4=O)CS[C@H]23)ns1; assay: as §2
[8] = substrate: CC1(C)S[C@@H]2[C@H](NC(=O)Cc3ccccc3)C(=O)N2[C@H]1C(=O)O; assay: (§3) Activity of Pseudomonas aeruginosa MK-1184 AmpC assessed as drug hydrolysis by spectrophotometry
[9] = substrate: CC(C)(O/N=C(\C(=O)N[C@@H]1C(=O)N2C(C(=O)[O-])=C(C[n+]3ccccc3)CS[C@H]12)c1csc(N)n1)C(=O)O; assay: as §3
[10] = substrate: O=C(Cc1cccs1)N[C@@H]1C(=O)N2C(C(=O)[O-])=C(C[n+]3ccccc3)CS[C@H]12; assay: as §3
[11] = substrate: CO/N=C(\C(=O)N[C@@H]1C(=O)N2C(C(=O)[O-])=C(C[N+]3(C)CCCC3)CS[C@H]12)c1csc(N)n1; assay: as §3
[12] = substrate: Nc1nc(/C(=N/O)C(=O)N[C@@H]2C(=O)N3C(C(=O)O)=C(/C=C4\CCN([C@@H]5CCNC5)C4=O)CS[C@H]23)ns1; assay: as §3
[13] = substrate: CC1(C)S[C@@H]2[C@H](NC(=O)Cc3ccccc3)C(=O)N2[C@H]1C(=O)O; assay: (§4) Ratio of Kcat to Km of Pseudomonas aeruginosa MK-1184 AmpC assessed as drug hydrolysis by spectrophotometry
[14] = substrate: CC(C)(O/N=C(\C(=O)N[C@@H]1C(=O)N2C(C(=O)[O-])=C(C[n+]3ccccc3)CS[C@H]12)c1csc(N)n1)C(=O)O; assay: as §4
[15] = substrate: O=C(Cc1cccs1)N[C@@H]1C(=O)N2C(C(=O)[O-])=C(C[n+]3ccccc3)CS[C@H]12; assay: as §4
[16] = substrate: CO/N=C(\C(=O)N[C@@H]1C(=O)N2C(C(=O)[O-])=C(C[N+]3(C)CCCC3)CS[C@H]12)c1csc(N)n1; assay: as §4
[17] = substrate: Nc1nc(/C(=N/O)C(=O)N[C@@H]2C(=O)N3C(C(=O)O)=C(/C=C4\CCN([C@@H]5CCNC5)C4=O)CS[C@H]23)ns1; assay: as §4
[18] = substrate: CC1(C)S[C@@H]2[C@H](NC(=O)Cc3ccccc3)C(=O)N2[C@H]1C(=O)O; assay: (§5) Ratio of Kcat to Km of Pseudomonas aeruginosa AmpC assessed as drug hydrolysis by spectrophotometry
[19] = substrate: O=C(Cc1cccs1)N[C@@H]1C(=O)N2C(C(=O)[O-])=C(C[n+]3ccccc3)CS[C@H]12; assay: as §5
[20] = substrate: CO/N=C(\C(=O)N[C@@H]1C(=O)N2C(C(=O)[O-])=C(C[N+]3(C)CCCC3)CS[C@H]12)c1csc(N)n1; assay: as §5
[21] = substrate: Nc1nc(/C(=N/O)C(=O)N[C@@H]2C(=O)N3C(C(=O)O)=C(/C=C4\CCN([C@@H]5CCNC5)C4=O)CS[C@H]23)ns1; assay: as §5
[22] = substrate: CC1(C)S[C@@H]2[C@H](NC(=O)Cc3ccccc3)C(=O)N2[C@H]1C(=O)O; assay: (§6) Activity of Pseudomonas aeruginosa 4352 AmpC assessed as drug hydrolysis by spectrophotometry
[23] = substrate: CC(C)(O/N=C(\C(=O)N[C@@H]1C(=O)N2C(C(=O)[O-])=C(C[n+]3ccccc3)CS[C@H]12)c1csc(N)n1)C(=O)O; assay: as §6
[24] = substrate: O=C(Cc1cccs1)N[C@@H]1C(=O)N2C(C(=O)O)=C(/C=C/c3ccc([N+](=O)[O-])cc3[N+](=O)[O-])CS[C@H]12; assay: as §6
[25] = substrate: O=C(Cc1cccs1)N[C@@H]1C(=O)N2C(C(=O)[O-])=C(C[n+]3ccccc3)CS[C@H]12; assay: as §6
[26] = substrate: CO/N=C(\C(=O)N[C@@H]1C(=O)N2C(C(=O)[O-])=C(C[N+]3(C)CCCC3)CS[C@H]12)c1csc(N)n1; assay: as §6
[27] = substrate: Nc1nc(/C(=N/O)C(=O)N[C@@H]2C(=O)N3C(C(=O)O)=C(/C=C4\CCN([C@@H]5CCNC5)C4=O)CS[C@H]23)ns1; assay: as §6
[28] = substrate: CC1(C)S[C@@H]2[C@H](NC(=O)Cc3ccccc3)C(=O)N2[C@H]1C(=O)O; assay: (§7) Activity of Pseudomonas aeruginosa 18SH AmpC assessed as drug hydrolysis by spectrophotometry
[29] = substrate: CC(C)(O/N=C(\C(=O)N[C@@H]1C(=O)N2C(C(=O)[O-])=C(C[n+]3ccccc3)CS[C@H]12)c1csc(N)n1)C(=O)O; assay: as §7
[30] = substrate: O=C(Cc1cccs1)N[C@@H]1C(=O)N2C(C(=O)[O-])=C(C[n+]3ccccc3)CS[C@H]12; assay: as §7
[31] = substrate: CO/N=C(\C(=O)N[C@@H]1C(=O)N2C(C(=O)[O-])=C(C[N+]3(C)CCCC3)CS[C@H]12)c1csc(N)n1; assay: as §7
[32] = substrate: Nc1nc(/C(=N/O)C(=O)N[C@@H]2C(=O)N3C(C(=O)O)=C(/C=C4\CCN([C@@H]5CCNC5)C4=O)CS[C@H]23)ns1; assay: as §7
[33] = substrate: CC1(C)S[C@@H]2[C@H](NC(=O)Cc3ccccc3)C(=O)N2[C@H]1C(=O)O; assay: (§8) Activity of Pseudomonas aeruginosa AmpC assessed as drug hydrolysis by spectrophotometry
[34] = substrate: CC(C)(O/N=C(\C(=O)N[C@@H]1C(=O)N2C(C(=O)[O-])=C(C[n+]3ccccc3)CS[C@H]12)c1csc(N)n1)C(=O)O; assay: as §8
[35] = substrate: O=C(Cc1cccs1)N[C@@H]1C(=O)N2C(C(=O)[O-])=C(C[n+]3ccccc3)CS[C@H]12; assay: as §8
[36] = substrate: CO/N=C(\C(=O)N[C@@H]1C(=O)N2C(C(=O)[O-])=C(C[N+]3(C)CCCC3)CS[C@H]12)c1csc(N)n1; assay: as §8
[37] = substrate: Nc1nc(/C(=N/O)C(=O)N[C@@H]2C(=O)N3C(C(=O)O)=C(/C=C4\CCN([C@@H]5CCNC5)C4=O)CS[C@H]23)ns1; assay: as §8
[38] = substrate: CC1(C)S[C@@H]2[C@H](NC(=O)Cc3ccccc3)C(=O)N2[C@H]1C(=O)O; assay: (§9) Ratio of Kcat to Km of Pseudomonas aeruginosa 18SH AmpC assessed as drug hydrolysis by spectrophotometry
[39] = substrate: O=C(Cc1cccs1)N[C@@H]1C(=O)N2C(C(=O)[O-])=C(C[n+]3ccccc3)CS[C@H]12; assay: as §9
[40] = substrate: CO/N=C(\C(=O)N[C@@H]1C(=O)N2C(C(=O)[O-])=C(C[N+]3(C)CCCC3)CS[C@H]12)c1csc(N)n1; assay: as §9
[41] = substrate: Nc1nc(/C(=N/O)C(=O)N[C@@H]2C(=O)N3C(C(=O)O)=C(/C=C4\CCN([C@@H]5CCNC5)C4=O)CS[C@H]23)ns1; assay: as §9
[42] = substrate: CC1(C)S[C@@H]2[C@H](NC(=O)Cc3ccccc3)C(=O)N2[C@H]1C(=O)O; assay: (§10) Ratio of Kcat to Km of Pseudomonas aeruginosa 4352 AmpC assessed as drug hydrolysis by spectrophotometry
[43] = substrate: CC(C)(O/N=C(\C(=O)N[C@@H]1C(=O)N2C(C(=O)[O-])=C(C[n+]3ccccc3)CS[C@H]12)c1csc(N)n1)C(=O)O; assay: as §10
[44] = substrate: O=C(Cc1cccs1)N[C@@H]1C(=O)N2C(C(=O)O)=C(/C=C/c3ccc([N+](=O)[O-])cc3[N+](=O)[O-])CS[C@H]12; assay: as §10
[45] = substrate: O=C(Cc1cccs1)N[C@@H]1C(=O)N2C(C(=O)[O-])=C(C[n+]3ccccc3)CS[C@H]12; assay: as §10
[46] = substrate: CO/N=C(\C(=O)N[C@@H]1C(=O)N2C(C(=O)[O-])=C(C[N+]3(C)CCCC3)CS[C@H]12)c1csc(N)n1; assay: as §10
[47] = substrate: Nc1nc(/C(=N/O)C(=O)N[C@@H]2C(=O)N3C(C(=O)O)=C(/C=C4\CCN([C@@H]5CCNC5)C4=O)CS[C@H]23)ns1; assay: as §10

B1: Beta-lactamase TEM (Escherichia coli), P62593 (protein)
chain: MSIQHFRVALIPFFAAFCLPVFAHPETLVKVKDAEDQLGARVGYIELDLNSGKILESFRPEERFPMMSTFKVLLCGAVLSRVDAGQEQLGRRIHYSQNDLVEYSPVTEKHLTDGMTVRELCSAAITMSDNTAANLLLTTIGGPKELTAFLHNMGDHVTRLDRWEPELNEAIPNDERDTTMPAAMATTLRKLLTGELLTLASRQQLIDWMEADKVAGPLLRSALPAGWFIADKSGAGERGSRGIIAALGPDGKPSRIVVIYTTGSQATMDERNRQIAEIGASLIKHW
With B1 as the protein, how does the kcat/Km [1] read?
Its kcat/Km is 1e+08 M⁻¹ s⁻¹.

And the kcat/Km [2]?
Its kcat/Km is 12 M⁻¹ s⁻¹.

And the kcat/Km [3]?
The kcat/Km was 29000 M⁻¹ s⁻¹.

What about the Km [4] of the same protein?
Its Km is 12 µM.

What about the kcat [4] of the same protein?
Its kcat is 1200 s⁻¹.

And the Km [5]?
The Km was 200 µM.

And the kcat [5]?
The kcat was 0.0023 s⁻¹.

And the Km [6]?
The Km was 560 µM.

What about the kcat [6] of the same protein?
Its kcat is 980 s⁻¹.

What about the Km [7] of the same protein?
The Km was 300 µM.

And the kcat [7]?
The kcat was 8.8 s⁻¹.

B2: Beta-lactamase (Pseudomonas aeruginosa (strain ATCC 15692 / PAO1 / 1C / PRS 101 / LMG12228)), P24735 (protein)
chain: MRDTRFPCLCGIAASTLLFATTPAIAGEAPADRLKALVDAAVQPVMKANDIPGLAVAISLKGEPHYFSYGLASKEDGRRVTPETLFEIGSVSKTFTATLAGYALTQDKMRLDDRASQHWPALQGSRFDGISLLDLATYTAGGLPLQFPDSVQKDQAQIRDYYRQWQPTYAPGSQRLYSNPSIGLFGYLAARSLGQPFERLMEQQVFPALGLEQTHLDVPEAALAQYAQGYGKDDRPLRVGPGPLDAEGYGVKTSAADLLRFVDANLHPERLDRPWAQALDATHRGYYKVGDMTQGLGWEAYDWPISLKRLQAGNSTPMALQPHRIARLPAPQALEGQRLLNKTGSTNGFGAYVAFVPGRDLGLVILANRNYPNAERVKIAYAILSGLEQQGKVPLKR
Which results are given for B2?
Km [8]: 3 µM; kcat [8]: 20 s⁻¹; Km [9]: 12 µM; kcat [9]: 0.69 s⁻¹; Km [10]: 21 µM; kcat [10]: 22 s⁻¹; Km [11]: 38 µM; kcat [11]: 0.33 s⁻¹; Km [12]: 42 µM; kcat [12]: 0.45 s⁻¹; kcat/Km [13]: 6.7e+06 M⁻¹ s⁻¹; kcat/Km [14]: 58000 M⁻¹ s⁻¹; kcat/Km [15]: 1.1e+06 M⁻¹ s⁻¹; kcat/Km [16]: 8600 M⁻¹ s⁻¹; kcat/Km [17]: 11000 M⁻¹ s⁻¹; kcat/Km [18]: 1.1e+07 M⁻¹ s⁻¹; kcat/Km [19]: 80000 M⁻¹ s⁻¹; kcat/Km [20]: 1300 M⁻¹ s⁻¹; kcat/Km [21]: 7.9e+06 M⁻¹ s⁻¹; Km [22]: 11 µM; kcat [22]: 37 s⁻¹; Km [23]: 8 µM; kcat [23]: < 0.01 s⁻¹; Km [24]: 12 µM; kcat [24]: 68 s⁻¹; Km [25]: 320 µM; kcat [25]: 100 s⁻¹; Km [26]: 370 µM; kcat [26]: < 0.012 s⁻¹; Km [27]: 55 µM; kcat [27]: < 0.024 s⁻¹; Km [28]: 40 µM; kcat [28]: 45 s⁻¹; Km [29]: 20 µM; kcat [29]: < 0.1 s⁻¹; Km [30]: 71 µM; kcat [30]: 130 s⁻¹; Km [31]: 210 µM; kcat [31]: < 0.1 s⁻¹; Km [32]: 280 µM; kcat [32]: 3.6 s⁻¹; Km [33]: 7.9 µM; kcat [33]: 86 s⁻¹; kcat [34]: < 0.0095 s⁻¹; Km [35]: 200 µM; kcat [35]: 16 s⁻¹; Km [36]: 230 µM; kcat [36]: 3.1 s⁻¹; Km [37]: 29 µM; kcat [37]: 230 s⁻¹; kcat/Km [38]: 1.1e+06 M⁻¹ s⁻¹; kcat/Km [39]: 1.8e+06 M⁻¹ s⁻¹; kcat/Km [40]: 9000 M⁻¹ s⁻¹; kcat/Km [41]: 13000 M⁻¹ s⁻¹; kcat/Km [42]: 3.4e+06 M⁻¹ s⁻¹; kcat/Km [43]: < 1300 M⁻¹ s⁻¹; kcat/Km [44]: 5.7e+06 M⁻¹ s⁻¹; kcat/Km [45]: 310000 M⁻¹ s⁻¹; kcat/Km [46]: < 33 M⁻¹ s⁻¹; kcat/Km [47]: < 440 M⁻¹ s⁻¹
